Results from the supplement of paper PMC10567573.

B1: RSPH3 (parent)
chain: MTVKPAKAASLARNLAKRRRTYLG

Variants of: B1
Assay: protein stability index of a GFP-peptide fusion (GPS, HEK-293T) (PSI 1-6); higher = more stable
Settings: c terminus: a fixed tail appended
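Also: lentivirally expressed fusions sorted by FACS into six bins by GFP to DsRed ratio, PSI derived from sequencing read proportions per bin multiplied by bin number.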

Protein stability index, by site and new letter:
A16: L 2.35; G 3.15; N 2.72; F 2.48; I 2.28; T 2.69; V 3.28; Y 2.53; M 2.57; P 3.42; W 1.82; H 3.91; C 2.72; R 3.35; E 2.15; Q 2.19; D 3.04; K 3.44; S 3.36
A12: C 2.87; L 1.34; K 3.22; I 2.69; Y 2.19; S 2.39; E 2.83; M 2.22; G 3.21; V 2.16; P 2.87; N 2.49; F 1.94; D 3.94; Q 3.11; H 2.17; T 3.28; R 3.67; W 2.09
L11: Q 3.79; P 3.68; R 2.18; V 3.3; W 1.83; Y 3.01; T 3.36; N 3.99; S 3.29
R19: G 2.85; P 1.86; L 2.05; A 1.79; F 1.23; E 3.49; I 1.77; T 2.52; S 2.51; M 3.63; D 2.88; C 1.6; K 2.86; Y 2.42; W 1.64; H 1.51; V 1.45; N 2.37; Q 2.62
K17: T 3; F 2.1; V 2.64; W 1.92; M 2.8; E 2.99; Q 2.49; I 2.46; N 2.57; H 2.99; L 2.61; C 1.99; D 3.25; P 3.02; Y 2.38; A 3.39; S 2.91; R 3.04; G 3.5
R13: V 2.56; F 2.29; C 3.12; Q 3.48; W 1.8; A 3.26; L 2.36; N 3.63; S 2.8; H 2.42; M 2.39; E 3.08; G 2.86; P 2.48; D 2.85; I 2.7; T 2.66; K 3.08
R18: K 2.55; P 2.38; V 2.91; Q 2.52; C 2.62; D 3; T 2.73; A 3.3; Y 2.27; I 2.63; S 2.96; F 2.71; G 3.22; E 3.33; L 2.55; N 2.31; M 2.38; H 2.91; W 2.55
L15: S 3.75; P 3.75; Y 2.84; N 3.56; D 4.11; A 4.08; Q 3.34; C 3.14; H 3.32; T 3.35; G 4.08; R 3.92; I 3.14; V 4.02; M 2.58; K 3.48; E 4.42; F 2.08
N14: T 3.29; C 2.14; V 2.53; W 2.67; G 3.21; R 2.13; P 2.8; D 3.08; M 2.39; Y 2.75; I 1.22; H 1.94; E 2.88; K 2.4; F 1.96; S 2.62; A 1.87; Q 3.41
R20: E 2.81; D 3.08; A 2.41; H 2.59; C 1.91; L 1.81; I 2.17; K 3.12; F 1.96
